These results are taken from patent US20220144953A1 (published 2022).

In the assay the target is Parent. Nature of the assay: antigen titration binding curve (Norm. RFU).

B1: Mouse (receptor)
chain: FKVTTPYSLYVCPEGQNATLTCRILGPVSKGHDVTIYKTWYLSSRGEVQMCKEHRPIRNFTLQHLQHHGSHLKANASHDQPQKHGLELASDHHGNFSITLRNVTPRDSGLYCCLVIELKNHHPEQRFYGSMELQVQAGKGSGSTCMASNEQDSDSITAA
The term Kd denotes the equilibrium constant for the complex coming apart. In the case of B1, the Kd was found to be 165 nM.
